Experimental data: PMC6849348, “Theranostic Application of a Novel G-Quadruplex-Forming DNA Aptamer Targeting Malate Synthase of Mycobacterium tuberculosis”

Experiments:
[1] = target: T1, malate synthase (MS, GlcB) (Mycobacterium tuberculosis, UniProt P9WK17 1-741); assay: enzyme inhibition (mixed); glyoxylate, acetyl-CoA, 5 mM Mg2+; settings: protein: recombinant, tags: C-terminal His6
[2] = target: T1, malate synthase (MS, GlcB); assay: SPR; settings: protein: recombinant, tags: C-terminal His6
[3] = target: T1, malate synthase (MS, GlcB); assay: enzyme inhibition; glyoxylate, acetyl-CoA, 5 mM Mg2+; settings: protein: recombinant, tags: C-terminal His6
[4] = target: T1, malate synthase (MS, GlcB); assay: ALISA; settings: protein: recombinant; tags: C-terminal His6
[5] = G4 parallel (CD, NMR), modeled as tetramer of 4 strands

T1 sequence (P9WK17 whole entry): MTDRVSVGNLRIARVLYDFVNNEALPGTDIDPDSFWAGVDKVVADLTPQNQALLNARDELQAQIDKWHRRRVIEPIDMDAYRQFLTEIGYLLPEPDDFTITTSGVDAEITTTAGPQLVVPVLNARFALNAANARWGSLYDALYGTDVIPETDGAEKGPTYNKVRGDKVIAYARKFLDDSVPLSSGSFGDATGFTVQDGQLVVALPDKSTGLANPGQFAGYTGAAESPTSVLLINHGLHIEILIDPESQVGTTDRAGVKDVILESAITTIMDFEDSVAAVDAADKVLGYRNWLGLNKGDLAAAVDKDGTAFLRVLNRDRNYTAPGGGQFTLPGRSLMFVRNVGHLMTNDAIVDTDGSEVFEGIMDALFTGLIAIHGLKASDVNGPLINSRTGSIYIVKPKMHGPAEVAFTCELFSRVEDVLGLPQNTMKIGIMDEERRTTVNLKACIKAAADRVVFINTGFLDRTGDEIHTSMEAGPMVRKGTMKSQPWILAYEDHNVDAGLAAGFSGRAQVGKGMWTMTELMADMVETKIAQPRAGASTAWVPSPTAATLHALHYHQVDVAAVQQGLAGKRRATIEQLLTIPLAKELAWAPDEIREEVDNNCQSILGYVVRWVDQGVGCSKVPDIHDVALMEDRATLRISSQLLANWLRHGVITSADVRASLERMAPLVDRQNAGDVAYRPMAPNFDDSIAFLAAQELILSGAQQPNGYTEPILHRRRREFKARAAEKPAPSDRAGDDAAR

GGTGGTGGTGG (structured_DNA) [MS10-Trunc]
Ki [1, 5]: 230 nM
Kd [2, 5]: 0.019 nM
IC50 [3, 5]: 251 nM

GGGGTGGTGG (structured_DNA) [MS10-Trunc dT3]
binding result [4]: binds

GGTGGTGGGG (structured_DNA) [MS10-Trunc dT9]
binding result [4]: binds

GGTGTGTTGACTGAGGGGGTGGGGTGGGTGGTGGTGGATATAGC (structured_DNA) [MS10]
Ki ([1]; G4, parallel (CD)): 270 nM
Kd ([2]; G4, parallel (CD)): 12 nM
IC50 ([3]; G4, parallel (CD)): 276 nM
